Data: publication PMC7561547 (2020)

Target: FGFR2b (Homo sapiens, UniProt P21802)
Assay: SPR

B1: bemarituzumab (antibody, V domains shown)
VH: QVQLVQSGAEVKKPGSSVKVSCKASGYIFTTYNVHWVRQAPGQGLEWIGSIYPDNGDTSYNQNFKGRATITADKSTSTAYMELSSLRSEDTAVYYCARGDFAYWGQGTLVTVSS
VL: DIQMTQSPSSLSASVGDRVTITCKASQGVSNDVAWYQQKPGKAPKLLIYSASYRYTGVPSRFSGSGSGTDFTFTISSLQPEDIATYYCQQHSTTPYTFGQGTKLEIKR
  Kd: 0.58 nM
